Assay results as given in PMC9089796.

Biological target: His6-tagged SRC SH3SH2 (residues 84-251) (human) (UniProt P12931)
Assay: SPR; His6-SRC SH3SH2 captured on Ni-NTA dextran chip (NiD200M); PTP4A1 injected for 60 seconds at 50 μL/min; 25°C; 20 mM Tris pH 8.0, 250 mM NaCl, 0.05% Tween 20; single injections fit with a 1-to-1 model

Kd: 1500 nM
Substance: oxidized PTP4A1 (residues 1-160) for SPR and NMR (from UniProt Q93096 1-160) (domain or fragment)
